{"source": "the supplement of paper PMC12042874", "note": "± gives the uncertainty stated by the source."}
{"test": "amyloid nucleation score (Sup35N fusion, yeast selection) (log enrichment); library NNK3; higher = more nucleation; inactive = no reads after selection", "method_in_brief": "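Psi-negative yeast expressed Sup35N fused to peptides of 20 random codons. They were induced 24 hours with 100 μM copper sulfate, grown 7 days at 30°C without adenine and uracil, and their plasmid inserts from input and output were Illumina-sequenced. The nucleation score is the DiMSum log enrichment of output over input reads, centred on the mode score of non-aggregating sequences. Sequences with under 100 input reads were excluded.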"}
{"substance": "NLCVYWYSWGRSWGDFVTGY", "amyloid nucleation score": "0.269 ± 0.36"}
{"substance": "NLDLSGGESASWRNFSFFLK", "amyloid nucleation score": "inactive"}
{"substance": "NLESTNTMSYIWYRADSKCG", "amyloid nucleation score": "inactive"}
{"substance": "NLFVNL", "amyloid nucleation score": "1.13 ± 0.15"}
{"substance": "NLIFRFPLAIKWSLFSLDCL", "amyloid nucleation score": "inactive"}
{"substance": "NLLSAVY", "amyloid nucleation score": "0.787 ± 0.28"}
{"substance": "NLLVFDACHGVIRYGKTRVA", "amyloid nucleation score": "inactive"}
{"substance": "NLLWIISHNMNGVSRIISSV", "amyloid nucleation score": "inactive"}
{"substance": "NLMRSILWVEYVQDCNCCSG", "amyloid nucleation score": "2.54 ± 0.07"}
{"substance": "NLNSFSGAFVLIWGATVHFC", "amyloid nucleation score": "1.96 ± 0.075"}
{"substance": "NLNWGTLSTRFYCVEDS", "amyloid nucleation score": "inactive"}
{"substance": "NLNYNLSPLTEYSVSD", "amyloid nucleation score": "inactive"}
{"substance": "NLPNGMFKIHVDG", "amyloid nucleation score": "inactive"}
{"substance": "NLRFRSIFSS", "amyloid nucleation score": "inactive"}
{"substance": "NLSSSDTRSVCASWVTR", "amyloid nucleation score": "inactive"}
{"substance": "NLTVGSTILIPC", "amyloid nucleation score": "inactive"}
{"substance": "NLTYVMGSGWLLYQCVIM", "amyloid nucleation score": "2.61 ± 0.057"}
{"substance": "NLVACIVNTCYL", "amyloid nucleation score": "1.52 ± 0.14"}
{"substance": "NLVGTMATRYCRAHQEAREW", "amyloid nucleation score": "inactive"}
{"substance": "NLVYLLLRLYMMTFYQQRCP", "amyloid nucleation score": "inactive"}
{"substance": "NLYMGRPKRRVIGYLVACFA", "amyloid nucleation score": "inactive"}
{"substance": "NLYMLNTQGMSVLISCVGRI", "amyloid nucleation score": "0.996 ± 0.091"}
{"substance": "NMCSFFFRVSPVLQVQVSLV", "amyloid nucleation score": "1.61 ± 0.075"}
{"substance": "NMENLKRGFVIWS", "amyloid nucleation score": "inactive"}
{"substance": "NMFCVPYVKVESGCIMKRGN", "amyloid nucleation score": "1.91 ± 0.06"}
{"substance": "NMFPGSISLEWWGGTQLRWE", "amyloid nucleation score": "0.909 ± 0.23"}
{"substance": "NMGTGGRLEGPVDSGHSEKF", "amyloid nucleation score": "inactive"}
{"substance": "NMLYTKRNTVSSALVIYCVN", "amyloid nucleation score": "inactive"}
{"substance": "NMQLVYDRMDE", "amyloid nucleation score": "inactive"}
{"substance": "NMRRRYC", "amyloid nucleation score": "inactive"}
{"substance": "NMSTAWRRGNPVCTDSKYRV", "amyloid nucleation score": "inactive"}
{"substance": "NMTTLVKTMEDNMDSCISGV", "amyloid nucleation score": "1.12 ± 0.11"}
{"substance": "NMTVSHWGLTMSRL", "amyloid nucleation score": "1.26 ± 0.11"}
{"substance": "NMVTYTMIWLWMSMAAPS", "amyloid nucleation score": "inactive"}
{"substance": "NNCVITFFEFSTWGCLYLKF", "amyloid nucleation score": "inactive"}
{"substance": "NNFNISLRVRRSFKKCFFVR", "amyloid nucleation score": "1.85 ± 0.077"}
{"substance": "NNFTVAWFYRHGSLSISFGY", "amyloid nucleation score": "inactive"}
{"substance": "NNIVNSLYFEMGYGVN", "amyloid nucleation score": "inactive"}
{"substance": "NNRCNKFPGYTL", "amyloid nucleation score": "inactive"}
{"substance": "NNRLMYTSHISHACSYQMLK", "amyloid nucleation score": "inactive"}
{"substance": "NNTEHS", "amyloid nucleation score": "inactive"}
{"substance": "NNTVDDSVFWNELDGHTWLV", "amyloid nucleation score": "inactive"}
{"substance": "NNYSRVLSSIIEGIVIR", "amyloid nucleation score": "inactive"}
{"substance": "NNYTSPMHRFRSNLFHCVSA", "amyloid nucleation score": "inactive"}
{"substance": "NPKSSPVVTFWGTGYFSAGV", "amyloid nucleation score": "inactive"}
{"substance": "NPLYVFDRI", "amyloid nucleation score": "-0.71 ± 0.53"}
{"substance": "NQCAS", "amyloid nucleation score": "inactive"}
{"substance": "NRFVIIFSCLCFCPQSDMEL", "amyloid nucleation score": "2.37 ± 0.083"}
{"substance": "NRIFIGQVFRIIGPWLGMYH", "amyloid nucleation score": "inactive"}
{"substance": "NRKGIR", "amyloid nucleation score": "-0.009 ± 0.58"}
{"substance": "NRKNTKHLIFFYVFVT", "amyloid nucleation score": "inactive"}
{"substance": "NRQMLYILEINSIIFIQSFC", "amyloid nucleation score": "0.903 ± 0.16"}
{"substance": "NRRYFVELCGGNFM", "amyloid nucleation score": "inactive"}
{"substance": "NRVED", "amyloid nucleation score": "inactive"}
{"substance": "NRVFPANLSSLSSCSTFTLW", "amyloid nucleation score": "inactive"}
{"substance": "NRVLSVFDLFLRVAFASRFR", "amyloid nucleation score": "inactive"}
{"substance": "NRVPQWRRRQVGGD", "amyloid nucleation score": "inactive"}
{"substance": "NRYGGSAQGHPMWVTTSREW", "amyloid nucleation score": "inactive"}
{"substance": "NRYLVVLRSCS", "amyloid nucleation score": "inactive"}
{"substance": "NSCIFQTRMSGSYETVYHAP", "amyloid nucleation score": "0.054 ± 0.45"}
{"substance": "NSDATIWYFHRCSRLYVAGM", "amyloid nucleation score": "inactive"}
{"substance": "NSFVVTCLVSVGKRGKSRWL", "amyloid nucleation score": "1.25 ± 0.13"}
{"substance": "NSIILFWRLSRGVYSFLPHK", "amyloid nucleation score": "inactive"}
{"substance": "NSLCKLGFFSMVKYV", "amyloid nucleation score": "inactive"}
{"substance": "NSNIQKHICVQFVKRWLEPC", "amyloid nucleation score": "inactive"}
{"substance": "NSNSGFLVSFLWLSFWNSIS", "amyloid nucleation score": "inactive"}
{"substance": "NSSLY", "amyloid nucleation score": "inactive"}
{"substance": "NSSNII", "amyloid nucleation score": "2.56 ± 0.067"}
{"substance": "NSSSNE", "amyloid nucleation score": "1.01 ± 0.22"}
{"substance": "NSVDP", "amyloid nucleation score": "inactive"}
{"substance": "NSVHREECFLITF", "amyloid nucleation score": "inactive"}
{"substance": "NTFCIFALTYIQWVPYLAMF", "amyloid nucleation score": "inactive"}
{"substance": "NTGLAFTSYMTMDLLCISGA", "amyloid nucleation score": "inactive"}
{"substance": "NTNRSLENDCIRALRQCGLV", "amyloid nucleation score": "inactive"}
{"substance": "NTPFFGTGLSQTIAVKHLQM", "amyloid nucleation score": "inactive"}
{"substance": "NTPRRLHSYLFSTLWY", "amyloid nucleation score": "inactive"}
{"substance": "NTQNLNRVVCLGL", "amyloid nucleation score": "inactive"}
{"substance": "NTRKHFVSWCAHPDEDSSFM", "amyloid nucleation score": "inactive"}
{"substance": "NTRREDSGWTNLCFWCARN", "amyloid nucleation score": "2.01 ± 0.052"}
{"substance": "NTRTLSMYAVHGNIRVFMAE", "amyloid nucleation score": "0.917 ± 0.17"}
{"substance": "NTSDPSNRFLPFLYVRLHSS", "amyloid nucleation score": "inactive"}
{"substance": "NTSGKCVKIDVRLNTVTS", "amyloid nucleation score": "inactive"}
{"substance": "NTSLRYIKLFSVNDALPLP", "amyloid nucleation score": "inactive"}
{"substance": "NTTHNVNV", "amyloid nucleation score": "inactive"}
{"substance": "NVFMTWYTARGFMCYPSWDR", "amyloid nucleation score": "0.324 ± 0.43"}
{"substance": "NVGNRCYWWVLMARLLSIFR", "amyloid nucleation score": "inactive"}
{"substance": "NVIGPSNRVTSWMVKSMQMY", "amyloid nucleation score": "inactive"}
{"substance": "NVIYFHTQGMY", "amyloid nucleation score": "inactive"}
{"substance": "NVLLFLIVKHSVGIFVV", "amyloid nucleation score": "inactive"}
{"substance": "NVLVN", "amyloid nucleation score": "inactive"}
{"substance": "NVMDCSYITNVNIYSHHWDY", "amyloid nucleation score": "2.1 ± 0.055"}
{"substance": "NVNILFDNLIRDWFVSMWED", "amyloid nucleation score": "inactive"}
{"substance": "NVNMYIDFVLIDMNWQNCTQ", "amyloid nucleation score": "3.05 ± 0.062"}
{"substance": "NVPKPGTFFCDKCYYGCVWD", "amyloid nucleation score": "0.642 ± 0.48"}
{"substance": "NVRLYHFSGET", "amyloid nucleation score": "0.031 ± 0.41"}
{"substance": "NVRVGILQR", "amyloid nucleation score": "inactive"}
{"substance": "NVSFILLYGQCSECTQDA", "amyloid nucleation score": "2.03 ± 0.067"}
{"substance": "NVSLVTVWWDNHY", "amyloid nucleation score": "inactive"}
{"substance": "NVVWIYTIFRGVCFGYRRWA", "amyloid nucleation score": "inactive"}
{"substance": "NVYFGRYFI", "amyloid nucleation score": "inactive"}
{"substance": "NWEFDSNAILDSMLVMNRLT", "amyloid nucleation score": "inactive"}
{"substance": "NWFTMSNFMFYRTFCFIYSS", "amyloid nucleation score": "inactive"}
{"substance": "NWHDYSSGVGLKIRGECMNV", "amyloid nucleation score": "inactive"}
{"substance": "NWNSSHLNREYTRHFSGMMV", "amyloid nucleation score": "inactive"}
{"substance": "NWSLSKSRHIPLGTCRGISY", "amyloid nucleation score": "-0.201 ± 0.84"}
{"substance": "NWSTIECMYMASVVLNARFG", "amyloid nucleation score": "inactive"}
{"substance": "NYFGPGKQWPID", "amyloid nucleation score": "inactive"}
{"substance": "NYGGFKDFG", "amyloid nucleation score": "1.51 ± 0.088"}
{"substance": "NYLGWPDIKCHGYVDSFLFV", "amyloid nucleation score": "inactive"}
{"substance": "NYLKFCFSCRCIVLSRTVSW", "amyloid nucleation score": "inactive"}
{"substance": "NYLRSVLMASGWYWILCIHF", "amyloid nucleation score": "inactive"}
{"substance": "NYPLRFLGKLAAT", "amyloid nucleation score": "inactive"}
{"substance": "NYPSYSMHNDIFYAFNFSIS", "amyloid nucleation score": "2.17 ± 0.084"}
{"substance": "NYSSAQEYKVSQERIS", "amyloid nucleation score": "inactive"}
{"substance": "NYVVIPRFMYLVQIYLKVFW", "amyloid nucleation score": "-0.064 ± 0.8"}
{"substance": "NYWEIEYGVAGCSFLEGMRH", "amyloid nucleation score": "inactive"}
{"substance": "PAKPGL", "amyloid nucleation score": "inactive"}
{"substance": "PARGLDQEMSSKVFMRGYLA", "amyloid nucleation score": "inactive"}
{"substance": "PCFLMGPVIPIVFALYKILV", "amyloid nucleation score": "inactive"}
